“And” between values parts separate entries of the source, which are not always exact repeats. Equal values may be shown once. Blank lines part the entries; values can stand above or below the binder they belong to.
How the values were obtained:
DLL4 (DLL4 ECD/His tag) = target: T1, DLL4 (DLL4 ECD/His tag) (UniProt Q9NR61 27-529, limits assumed); experiment: Direct Bind ELISA, antigen on plate
T1 construct: extracellular domain; Bought reagent
Protocol: (§1) Enzyme Linked Immunosorbent Assays to screen for antibodies that bind a desired target antigen were performed as follows. […] Plates were washed four times with PBS containing 0.02% Tween 20. Plates were blocked by the addition of 300 μL/well blocking solution (non-fat dry milk powder, various retail suppliers, diluted to 2% in PBS) for ½ hour at room temperature. Plates were washed four times after blocking with PBS containing 0.02% Tween 20.
(§2) Alternatively, one hundred microliters per well of 10 μg/ml of Histidine (His) tagged desired target antigen (R&D Systems, Minneapolis, Minn.) was added to ELISA plates coated with monoclonal mouse anti-polyHistidine antibody as described above and incubated for 1 hour at room temperature. Wells were washed four times with PBS containing 0.02% Tween 20.
(§3) One hundred microliters of antibody or DVD-Ig preparations diluted in blocking solution as described above was added to the desired target antigen plate or desired target antigen/FC fusion plate or the anti-polyHistidine antibody/His tagged desired target antigen plate prepared as described above and incubated for 1 hour at room temperature. Wells are washed four times with PBS containing 0.02% Tween 20.

IGF1 (IGF-I) [1] = target: T2, IGF1 (IGF-I) (UniProt P05019 49-118); experiment: Direct Bind ELISA, antigen on plate; first value of IGF1/IGF2 cell
T2 construct: Bought reagent
Protocol: as §1, §3
(§4) Plates were washed 4 times with PBS containing 0.02% Tween 20.

IGF2 (IGF-2) [2] = target: T3, IGF2 (IGF-2) (UniProt P01344 25-91); experiment: Direct Bind ELISA, antigen on plate; second value of IGF1/IGF2 cell
T3 construct: Bought reagent

[3] = target: T4, NRP1 (Neuropilin-1 Npn-1-His tag) (UniProt O14786-2 22-644); experiment: Direct Bind ELISA, antigen on plate; N-terminal VD
T4 construct: Bought reagent

[4] = target: T5, CD40/FC (CD40 ECD/FC chimera-His tag) (UniProt P25942 21-193); experiment: Direct Bind ELISA, C-terminal variable domain
T5 construct: extracellular domain; bought reagent; not shown: IgG FC domain and His tag of the bought chimera
T5 sequence (P25942 21-193, change not shown): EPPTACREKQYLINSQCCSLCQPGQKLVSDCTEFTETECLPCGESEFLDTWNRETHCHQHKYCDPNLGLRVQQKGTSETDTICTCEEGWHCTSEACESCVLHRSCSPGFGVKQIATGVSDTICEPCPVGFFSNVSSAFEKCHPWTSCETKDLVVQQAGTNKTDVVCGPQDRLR

[5] = target: T4, NRP1 (Neuropilin-1 Npn-1-His tag); experiment: Direct Bind ELISA, antigen on plate; C-terminal VD
Protocol: as §1, §2, §3

biotinylated VEGF [6] = target: T6, biotinylated VEGF (UniProt P15692-4 27-191, limits assumed, biotinylated); experiment: capture ELISA, DVD-Ig captured by anti-human Fc, biotinylated VEGF; N-terminal VD
T6 sequence (P15692 other isoform, or with tags, fused parts or gaps limits assumed): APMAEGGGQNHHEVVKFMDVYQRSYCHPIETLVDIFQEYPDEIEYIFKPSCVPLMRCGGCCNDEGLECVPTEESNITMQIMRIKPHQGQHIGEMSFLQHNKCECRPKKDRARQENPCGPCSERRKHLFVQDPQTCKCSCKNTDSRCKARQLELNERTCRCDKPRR
Protocol: ELISA plates (Nunc, MaxiSorp, Rochester, N.Y.) were incubated overnight at 4° C. with anti-human Fc antibody (5 μg/ml in PBS, Jackson Immunoresearch, West Grove, Pa.). Plates were washed three times in washing buffer (PBS containing 0.05% Tween 20), and blocked for 1 hour at 25° C. in blocking buffer (PBS containing 1% BSA). Wells were washed three times, and serial dilutions of each antibody or DVD-Ig in PBS containing 0.1% BSA were added to the wells and incubated at 25° C. for 1 hour. […] The wells were washed three times, and 100 μl of ULTRA-TMB ELISA (Pierce, Rockford, Ill.) were added per well.

[7] = target: T7, biotin-labeled human DLL4 extracellular domain (human, UniProt Q9NR61 27-529, biotin-labeled); experiment: capture ELISA, DVD-Ig captured by anti-human Fc, biotin-labeled human DLL4 ECD; C-terminal VD
T7 construct: extracellular domain
Protocol: (§5) ELISA plates were washed three times with wash buffer (PBS, 0.05% Tween 20) and then blocked with 200 μl/well blocking buffer (D-PBS, 1% BSA, 1 mM CaCl₂, 0.05% Tween 20) for 1 hour at 25° C.

PlGF (Placental GF) = target: T8, PlGF (Placental GF) (UniProt P49763-2 21-149, limits assumed); experiment: Direct Bind ELISA, antigen on plate
T8 construct: Bought reagent
T8 sequence (looked up): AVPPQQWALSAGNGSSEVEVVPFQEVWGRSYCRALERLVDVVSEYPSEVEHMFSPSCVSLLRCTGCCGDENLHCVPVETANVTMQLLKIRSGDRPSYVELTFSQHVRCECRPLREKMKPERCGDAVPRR
Protocol: as §1, §2, §3

IGF2 (IGF-2) [8] = target: T3, IGF2 (IGF-2); experiment: Direct Bind ELISA, antigen on plate; N-terminal VD; second value of IGF1/IGF2 cell
Protocol: as §1, §3, §4

IGF1 (IGF-I) [9] = target: T2, IGF1 (IGF-I); experiment: Direct Bind ELISA, antigen on plate; N-terminal VD; first value of IGF1/IGF2 cell
Protocol: as §1, §3, §4

[10] = target: T4, NRP1 (Neuropilin-1 Npn-1-His tag); experiment: Direct Bind ELISA, antigen on plate
Protocol: as §1, §2, §3

[11] = target: T7, biotin-labeled human DLL4 extracellular …; experiment: DLL4 capture ELISA, antibody captured by anti-human Fc, biotin-labeled human DLL4 ECD
[12] = target: T7, biotin-labeled human DLL4 extracellular …; experiment: capture ELISA, antibody captured by anti-human Fc, biotin-labeled human DLL4 ECD
Protocol: as §5

IGF2 (IGF-2) [13] = target: T3, IGF2 (IGF-2); experiment: Direct Bind ELISA, antigen on plate; C-terminal VD; second value of IGF1/IGF2 cell
Protocol: as §1, §3, §4

IGF1 (IGF-I) [14] = target: T2, IGF1 (IGF-I); experiment: Direct Bind ELISA, antigen on plate; C-terminal VD; first value of IGF1/IGF2 cell
Protocol: as §1, §3, §4

biotinylated VEGF [15] = target: T6, biotinylated VEGF; experiment: VEGF capture ELISA, antibody captured by anti-human Fc, biotinylated VEGF

EC50 (DLL4 (DLL4 ECD/His tag)): 0.31 nM
B1: AB015 (anti-DLL-4 (seq. 1) parent antibody) (antibody, IgG1, V domains shown)
VH: EVQLVESGGGLVQPGGSLRLSCAASGFTFTDNWISWVRQAPGKGLEWVGYISPNSGFTYYADSVKGRFTISADTSKNTAYLQMNSLRAEDTAVYYCARDNFGGYFDYWGQGTLVTVSS
VL: DIQMTQSPSSLSASVGDRVTITCRASQDVSTAVAWYQQKPGKAPKLLIYSASFLYSGVPSRFSGSGSGTDFTLTISSLQPEDFATTYYCQQSYTGTVTFGQGTKVEIKR
notes: HC vector V1 (wild-type hIgG1 constant), LC vector V2 (kappa constant); also called AB015VH; AB015VL

EC50 (IGF1 (IGF-I) [1]): 4.77 nM
EC50 (IGF2 (IGF-2) [2]): 10 nM and 18.1 nM
B2: AB010 (anti-IGF1,2 parent antibody) (antibody, IgG1, V domains shown)
VH: QVQLVQSGAEVKKPGASVKVSCKASGYTFTSYDINWVRQATGQGLEWMGWMNPNSGNTGYAQKFQGRVTMTRNTSISTAYMELSSLRSEDTAVYYCARDPYYYYYGMDVWGQGTTVTVSS
VL: QSVLTQPPSVSAAPGQKVTISCSGSSSNIENNHVSWYQQLPGTAPKLLIYDNNKRPSGIPDRFSGSKSGTSATLGITGLQTGDEADYYCETWDTSLSAGRVFGGGTKLTVLG
notes: HC vector V1 (wild-type hIgG1 constant), LC vector V3 (lambda constant); also called AB010VH; AB010VL

EC50 [3]: 0.46 nM
B3: DVD050 (NRP1 (seq. 1) and VEGF (seq. 1) DVD-Ig) (bispecific antibody, IgG1)
VH: EVQLVESGGGLVQPGGSLRLSCAASGFSFSSEPISWVRQAPGKGLEWVSSITGKNGYTYYADSVKGRFTISADTSKNTAYLQMNSLRAEDTAVYYCARWGKKVYGMDVWGQGTLVTVSSASTKGPEVQLVESGGGLVQPGGSLRLSCAASGYTFTNYGMNWVRQAPGKGLEWVGWINTYTGEPTYAADFKRRFTFSLDTSKSTAYLQMNSLRAEDTAVYYCAKYPHYYGSSHWYFDVWGQGTLVTVSS
VL: DIQMTQSPSSLSASVGDRVTITCRASQSISSYLAWYQQKPGKAPKLLIYGASSRASGVPSRFSGSGSGTDFTLTISSLQPEDFATYYCQQYMSVPITFGQGTKVEIKRTVAAPDIQMTQSPSSLSASVGDRVTITCSASQDISNYLNWYQQKPGKAPKVLIYFTSSLHSGVPSRFSGSGSGTDFTLTISSLQPEDFATYYCQQYSTVPWTFGQGTKVEIKR
notes: HC vector V1 (wild-type hIgG1 constant), LC vector V2 (kappa constant); also called DVD050H; DVD050L

binding result [4]: binds
B4: DVD009 DVD-Ig (bispecific antibody, human IgG1, kappa)
heavy: not shown
light: QIVLSQSPAILSPSPGEKVTMTCRASSSVSYIHWFQQKPGSSPKPWIYATSNLASGVPVRFSGSGSGTSYSLTISRVEAEDAATYYCQQWTSNPPTFGGGTKLEIKRTVAAPDIVMTQSPLSLTVTPGEPASISCRSSQSLLYSNGYNYLDWYLQKPGQSPQVLISLGSNRASGVPDRFSGSGSGTDFTLKISRVEAEDVGVYYCMQARQTPFTFGPGTKVDIRRTVAAPSVFIFPPSDEQLKSGTASVVCLLNNFYPREAKVQWKVDNALQSGNSQESVTEQDSKDSTYSLSSTLTLSKADYEKHKVYACEVTHQGLSSPVTKSFNRGEC
notes: outer AB001 (CD-20), inner AB009 (CD-40); HC/LC linkers short/short; also called DVD009H; DVD009L

EC50 [5]: 0.5 nM
B5: DVD049 (VEGF (seq. 1) and NRP1 (seq. 1) DVD-Ig) (bispecific antibody, IgG1)
VH: EVQLVESGGGLVQPGGSLRLSCAASGYTFTNYGMNWVRQAPGKGLEWVGWINTYTGEPTYAADFKRRFTFSLDTSKSTAYLQMNSLRAEDTAVYYCAKYPHYYGSSHWYFDVWGQGTLVTVSSASTKGPEVQLVESGGGLVQPGGSLRLSCAASGFSFSSEPISWVRQAPGKGLEWVSSITGKNGYTYYADSVKGRFTISADTSKNTAYLQMNSLRAEDTAVYYCARWGKKVYGMDVWGQGTLVTVSS
VL: DIQMTQSPSSLSASVGDRVTITCSASQDISNYLNWYQQKPGKAPKVLIYFTSSLHSGVPSRFSGSGSGTDFTLTISSLQPEDFATYYCQQYSTVPWTFGQGTKVEIKRTVAAPDIQMTQSPSSLSASVGDRVTITCRASQSISSYLAWYQQKPGKAPKLLIYGASSRASGVPSRFSGSGSGTDFTLTISSLQPEDFATYYCQQYMSVPITFGQGTKVEIKR
notes: HC vector V1 (wild-type hIgG1 constant), LC vector V2 (kappa constant); also called DVD049H; DVD049L

EC50 (biotinylated VEGF [6]): 0.2 nM
EC50 [7]: 0.5 nM
B6: DVD043 (bispecific antibody, human IgG1, kappa)
heavy: not shown
light: DIQMTQSPSSLSASVGDRVTITCSASQDISNYLNWYQQKPGKAPKVLIYFTSSLHSGVPSRFSGSGSGTDFTLTISSLQPEDFATYYCQQYSTVPWTFGQGTKVEIKRTVAAPDIQMTQSPSSLSASVGDRVTITCRASQDVSTAVAWYQQKPGKAPKLLIYSASFLYSGVPSRFSGSGSGTDFTLTISSLQPEDFATTYYCQQSYTGTVTFGQGTKVEIKRTVAAPSVFIFPPSDEQLKSGTASVVCLLNNFYPREAKVQWKVDNALQSGNSQESVTEQDSKDSTYSLSSTLTLSKADYEKHKVYACEVTHQGLSSPVTKSFNRGEC
notes: DVD-Ig; also called VEGF / DLL4 DVD-Ig; DVD043H

EC50 (PlGF (Placental GF)): 0.2 nM
B7: AB047 (anti-PLGF (seq. 1) parent antibody) (antibody, IgG1, V domains shown)
VH: QVQLQQSGAELVKPGASVKISCKASGYTFTDYYINWVKLAPGQGLEWIGWIYPGSGNTKYNEKFKGKATLTIDTSSSTAYMQLSSLTSEDTAVYFCVRDSPFFDYWGQGTLLTVSS
VL: DIVLTQSPDSLAVSLGERVTMNCKSSQSLLNSGMRKSFLAWYQQKPGQSPKLLIYWASTRESGVPDRFTGSGSGTDFTLTISSVQAEDVAVYYCKQSYHLFTFGSGTKLEIKR
notes: HC vector V1 (wild-type hIgG1 constant), LC vector V2 (kappa constant); also called AB047VH; AB047VL

EC50 (IGF2 (IGF-2) [8]): 17.6 nM
EC50 (IGF1 (IGF-I) [9]): 2.54 nM
B8: DVD042 (IGF1,2 and VEGF (seq. 1) DVD-Ig) (bispecific antibody, IgG1)
VH: QVQLVQSGAEVKKPGASVKVSCKASGYTFTSYDINWVRQATGQGLEWMGWMNPNSGNTGYAQKFQGRVTMTRNTSISTAYMELSSLRSEDTAVYYCARDPYYYYYGMDVWGQGTTVTVSSASTKGPEVQLVESGGGLVQPGGSLRLSCAASGYTFTNYGMNWVRQAPGKGLEWVGWINTYTGEPTYAADFKRRFTFSLDTSKSTAYLQMNSLRAEDTAVYYCAKYPHYYGSSHWYFDVWGQGTLVTVSS
VL: QSVLTQPPSVSAAPGQKVTISCSGSSSNIENNHVSWYQQLPGTAPKLLIYDNNKRPSGIPDRFSGSKSGTSATLGITGLQTGDEADYYCETWDTSLSAGRVFGGGTKLTVLGQPKAAPDIQMTQSPSSLSASVGDRVTITCSASQDISNYLNWYQQKPGKAPKVLIYFTSSLHSGVPSRFSGSGSGTDFTLTISSLQPEDFATYYCQQYSTVPWTFGQGTKVEIKR
notes: HC vector V1 (wild-type hIgG1 constant), LC vector V4 (lambda signal peptide, kappa constant); also called DVD042H; DVD042L

EC50 [10]: 0.58 nM
B9: AB016 (anti-NRP1 (seq. 1) parent antibody) (antibody, IgG1, V domains shown)
VH: EVQLVESGGGLVQPGGSLRLSCAASGFSFSSEPISWVRQAPGKGLEWVSSITGKNGYTYYADSVKGRFTISADTSKNTAYLQMNSLRAEDTAVYYCARWGKKVYGMDVWGQGTLVTVSS
VL: DIQMTQSPSSLSASVGDRVTITCRASQSISSYLAWYQQKPGKAPKLLIYGASSRASGVPSRFSGSGSGTDFTLTISSLQPEDFATYYCQQYMSVPITFGQGTKVEIKR
notes: HC vector V1 (wild-type hIgG1 constant), LC vector V2 (kappa constant); also called AB016VH; AB016VL

EC50 [11]: 0.15 nM and 0.18 nM and 0.14 nM
EC50 [12]: 0.03 nM
B10: AB015 (antibody, human IgG1, kappa)
heavy: not shown
light: DIQMTQSPSSLSASVGDRVTITCRASQDVSTAVAWYQQKPGKAPKLLIYSASFLYSGVPSRFSGSGSGTDFTLTISSLQPEDFATTYYCQQSYTGTVTFGQGTKVEIKRTVAAPSVFIFPPSDEQLKSGTASVVCLLNNFYPREAKVQWKVDNALQSGNSQESVTEQDSKDSTYSLSSTLTLSKADYEKHKVYACEVTHQGLSSPVTKSFNRGEC

EC50 (IGF2 (IGF-2) [13]): 7340 nM
EC50 (IGF1 (IGF-I) [14]): 381 nM
B11: DVD041 (VEGF (seq. 1) and IGF1,2 DVD-Ig) (bispecific antibody, IgG1)
VH: EVQLVESGGGLVQPGGSLRLSCAASGYTFTNYGMNWVRQAPGKGLEWVGWINTYTGEPTYAADFKRRFTFSLDTSKSTAYLQMNSLRAEDTAVYYCAKYPHYYGSSHWYFDVWGQGTLVTVSSASTKGPQVQLVQSGAEVKKPGASVKVSCKASGYTFTSYDINWVRQATGQGLEWMGWMNPNSGNTGYAQKFQGRVTMTRNTSISTAYMELSSLRSEDTAVYYCARDPYYYYYGMDVWGQGTTVTVSS
VL: DIQMTQSPSSLSASVGDRVTITCSASQDISNYLNWYQQKPGKAPKVLIYFTSSLHSGVPSRFSGSGSGTDFTLTISSLQPEDFATYYCQQYSTVPWTFGQGTKVEIKRTVAAPQSVLTQPPSVSAAPGQKVTISCSGSSSNIENNHVSWYQQLPGTAPKLLIYDNNKRPSGIPDRFSGSKSGTSATLGITGLQTGDEADYYCETWDTSLSAGRVFGGGTKLTVLG
notes: HC vector V1 (wild-type hIgG1 constant), LC vector V5 (kappa signal peptide, lambda constant); also called DVD041H; DVD041L

EC50 (biotinylated VEGF [15]): 0.38 nM
B12: AB071 (antibody, human IgG1, kappa, L234A L235A, V domains shown)
VH: EVQLVESGGGLVQPGGSLRLSCAASGFTINASWIHWVRQAPGKGLEWVGAIYPYSGYTNYADSVKGRFTISADTSKNTAYLQMNSLRAEDTAVYYCARWGHSTSPWAMDYWGQGTLVTVSS
VL: DIQMTQSPSSLSASVGDRVTITCRASQVIRRSLAWYQQKPGKAPKLLIYAASNLASGVPSRFSGSGSGTDFTLTISSLQPEDFATYYCQQSNTSPLTFGQGTKVEIKR
